Assay results as given in IntAct's records for PubMed 19395483.

B1: ATP-dependent protease ATPase subunit HslU (Escherichia coli (strain K12)), P0A6H5 (parent)
chain: MSEMTPREIVSELDKHIIGQDNAKRSVAIALRNRWRRMQLNEELRHEVTPKNILMIGPTGVGKTEIARRLAKLANAPFIKVEATKFTEVGYVGKEVDSIIRDLTDAAVKMVRVQAIEKNRYRAEELAEERILDVLIPPAKNNWGQTEQQQEPSAARQAFRKKLREGQLDDKEIEIDLAAAPMGVEIMAPPGMEEMTSQLQSMFQNLGGQKQKARKLKIKDAMKLLIEEEAAKLVNPEELKQDAIDAVEQHGIVFIDEIDKICKRGESSGPDVSREGVQRDLLPLVEGCTVSTKHGMVKTDHILFIASGAFQIAKPSDLIPELQGRLPIRVELQALTTSDFERILTEPNASITVQYKALMATEGVNIEFTDSGIKRIAEAAWQVNESTENIGARRLHTVLERLMEEISYDASDLSGQNITIDADYVSKHLDALVADEDLSRFIL
partner: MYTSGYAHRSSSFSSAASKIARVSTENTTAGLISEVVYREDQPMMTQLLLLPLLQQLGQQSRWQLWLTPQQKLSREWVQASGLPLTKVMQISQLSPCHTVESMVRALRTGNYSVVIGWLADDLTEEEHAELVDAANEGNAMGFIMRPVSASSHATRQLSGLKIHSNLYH

Variants of: B1
Details: with sula_ecoli sulA

Variant	effect of a mutation on the interaction
V89I	increasing interaction strength
I186N	disrupting interaction strength
